This is an account of results in PMC2965851 (Chemistry & biology, 2008).

This data set concerns the molecule itself. The experiment in a line: crystal structure.

B1: N-(His)10-tagged CalG3 (native) (enzyme, Micromonospora echinospora, UniProt Q8KND7 1-376, looked up)
chain: MLFVSSPGIGHLFPLIQLAWGFRTAGHDVLIAVAEHADRAAAAGLEVVDVAPDYSAVKVFEQVAKDNPRFAETVATRPAIDLEEWGVQIAAVNRPLVDGTMALVDDYRPDLVVYEQGATVGLLAADRAGVPAVQRNQSAWRTRGMHRSIASFLTDLMDKHQVSLPEPVATIESFPPSLLLEAEPEGWFMRWVPYGGGAVLGDRLPPVPARPEVAITMGTIELQAFGIGAVEPIIAAAGEVDADFVLALGDLDISPLGTLPRNVRAVGWTPLHTLLRTCTAVVHHGGGGTVMTAIDAGIPQLLAPDPRDQFQHTAREAVSRRGIGLVSTSDKVDADLLRRLIGDESLRTAAREVREEMVALPTPAETVRRIVERISG
Broadly, the stoichiometry N is a count of units in the complex or per binding partner. In the case of B1, the “stoichiometry N” value turned out to be 2.
